Test results reported in PMC12462935, “TRIM21‐Mediated K11‐Linked Ubiquitination of ID1 Suppresses Tumorigenesis and Promotes Cuproptosis in Esophageal Squamous Cell Carcinoma” (Advanced Science, 2025).

Target: T1, TRIM21-His protein (UniProt P19474 1-475)
T1 construct: TRIM21-His protein, Sino Biological 18010-H07B; also called recombinant TRIM21; source: bought: Sino Biological (18010-H07B)
Assay: pull-down; TRIM21-His incubated with GST-ID1 or GST at a 3:1 molar ratio in lysis buffer; captured with anti-GST antibody at 4 °C overnight, then Protein A/G beads 4 h; immunoblot
Conditions: both partners purified

binding result: binds
B1: GST-ID1 (natural protein, UniProt P41134 1-155, looked up)
chain: MKVASGSTATAAAGPSCALKAGKTASGAGEVVRCLSEQSVAISRCAGGAGARLPALLDEQQVNVLLYDMNGCYSRLKELVPTLPQNRKVSKVEILQHVIDYIRDLQLELNSESEVGTPGGRGLPVRAPLSTLNGEISALTAEAACVPADDRILCR
notes: also called recombinant ID1; source: cloned into pGEX-6p-2 with a GST tag and purified
